Laboratory results taken from publication PMC2566858 (Nucleic Acids Research, 2008).
Like-named read-outs stand apart in the source and are kept apart here.

T1: rGyr_hel (reverse gyrase helicase-like domain) (Thermotoga maritima, UniProt O51934 59-541)
T1 sequence: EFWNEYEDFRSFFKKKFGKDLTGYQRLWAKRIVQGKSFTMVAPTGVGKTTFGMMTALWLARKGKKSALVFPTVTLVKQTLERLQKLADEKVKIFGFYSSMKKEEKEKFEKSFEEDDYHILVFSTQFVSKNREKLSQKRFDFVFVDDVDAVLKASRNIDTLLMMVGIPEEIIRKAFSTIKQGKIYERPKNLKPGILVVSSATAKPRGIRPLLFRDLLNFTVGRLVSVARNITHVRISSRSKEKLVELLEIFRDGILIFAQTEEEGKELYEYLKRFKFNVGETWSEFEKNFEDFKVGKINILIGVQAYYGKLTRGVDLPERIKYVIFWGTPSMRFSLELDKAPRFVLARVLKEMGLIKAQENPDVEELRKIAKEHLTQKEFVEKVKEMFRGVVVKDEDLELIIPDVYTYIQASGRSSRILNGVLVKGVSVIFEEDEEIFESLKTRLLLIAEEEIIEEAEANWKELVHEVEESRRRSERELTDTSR

T2: rGyr_hel K106Q (Thermotoga maritima, UniProt O51934 59-541, K106Q)
T2 sequence: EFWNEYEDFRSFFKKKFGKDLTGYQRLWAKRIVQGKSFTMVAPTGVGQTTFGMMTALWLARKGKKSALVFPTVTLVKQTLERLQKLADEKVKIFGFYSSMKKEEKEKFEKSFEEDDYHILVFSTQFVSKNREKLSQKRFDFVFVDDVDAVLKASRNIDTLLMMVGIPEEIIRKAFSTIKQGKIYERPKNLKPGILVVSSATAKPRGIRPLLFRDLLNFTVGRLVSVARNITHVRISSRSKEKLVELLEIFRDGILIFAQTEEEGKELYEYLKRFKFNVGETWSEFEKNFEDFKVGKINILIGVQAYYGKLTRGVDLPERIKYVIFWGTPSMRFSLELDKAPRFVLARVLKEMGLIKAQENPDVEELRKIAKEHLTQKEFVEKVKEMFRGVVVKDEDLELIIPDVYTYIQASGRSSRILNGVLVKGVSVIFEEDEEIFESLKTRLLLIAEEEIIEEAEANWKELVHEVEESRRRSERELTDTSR

T3: rGyr_fl Y851F (full-length reverse gyrase) (Thermotoga maritima, UniProt O51934 1-1104, Y851F)
T3 sequence: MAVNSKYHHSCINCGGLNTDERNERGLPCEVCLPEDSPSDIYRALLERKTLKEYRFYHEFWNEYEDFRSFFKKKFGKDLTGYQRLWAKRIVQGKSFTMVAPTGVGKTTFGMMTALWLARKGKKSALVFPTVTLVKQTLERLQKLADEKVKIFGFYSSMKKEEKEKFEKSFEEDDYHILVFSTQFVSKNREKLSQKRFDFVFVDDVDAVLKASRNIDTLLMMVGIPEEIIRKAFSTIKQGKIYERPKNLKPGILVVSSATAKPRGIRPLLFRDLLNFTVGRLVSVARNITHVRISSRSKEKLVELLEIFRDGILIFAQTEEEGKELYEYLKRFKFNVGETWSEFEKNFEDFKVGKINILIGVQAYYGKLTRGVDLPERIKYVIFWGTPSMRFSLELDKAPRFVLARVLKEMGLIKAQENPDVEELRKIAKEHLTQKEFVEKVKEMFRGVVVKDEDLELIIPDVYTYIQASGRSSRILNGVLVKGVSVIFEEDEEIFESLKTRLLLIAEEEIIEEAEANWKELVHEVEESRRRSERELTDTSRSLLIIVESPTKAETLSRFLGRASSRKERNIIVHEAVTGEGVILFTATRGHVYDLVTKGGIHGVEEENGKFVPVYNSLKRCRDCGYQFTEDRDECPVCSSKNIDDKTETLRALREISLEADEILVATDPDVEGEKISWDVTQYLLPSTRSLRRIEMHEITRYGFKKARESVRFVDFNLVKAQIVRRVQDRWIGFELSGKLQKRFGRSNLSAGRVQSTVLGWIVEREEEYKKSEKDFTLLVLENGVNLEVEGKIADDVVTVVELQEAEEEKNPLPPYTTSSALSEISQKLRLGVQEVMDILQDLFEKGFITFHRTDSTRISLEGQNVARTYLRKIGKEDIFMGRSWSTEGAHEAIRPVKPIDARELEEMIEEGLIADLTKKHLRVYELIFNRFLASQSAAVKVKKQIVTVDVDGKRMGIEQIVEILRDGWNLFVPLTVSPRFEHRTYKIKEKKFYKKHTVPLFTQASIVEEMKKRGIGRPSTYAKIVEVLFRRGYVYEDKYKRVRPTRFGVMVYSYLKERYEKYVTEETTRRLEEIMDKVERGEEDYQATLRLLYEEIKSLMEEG


Key:
Experiment in all cases: fluorescence anisotropy
[1] = biological target: T1, rGyr_hel (reverse gyrase helicase-like …)
[2] = biological target: T1, rGyr_hel (reverse gyrase helicase-like …); remark: listed apart in the source
[3] = biological target: T1, rGyr_hel (reverse gyrase helicase-like …); remark: listed apart in the source
rGyr_hel K106Q = biological target: T2, rGyr_hel K106Q
[4] = biological target: T3, rGyr_fl Y851F (full-length reverse …)
[5] = biological target: T3, rGyr_fl Y851F (full-length reverse …); remark: listed apart in the source

| Binder | Kd [1] | Kd [2] | Kd [3] | Kd (rGyr_hel K106Q) | Kd [4] | Kd [5] |
| --- | --- | --- | --- | --- | --- | --- |
| 60-base ssDNA (ssDNA) DNA: AAGCCAAGCTTCTAGAGTCAGCCCGTGATATTCATTACTTCTTATCCTAGGATCCCCGTT | 200 ± 10 nM | 310 ± 40 nM | 2900 ± 100 nM | 250 ± 30 nM | 36 ± 1 nM | 41 ± 1 nM |
| 60 bp dsDNA (dsDNA) DNA 1: AAGCCAAGCTTCTAGAGTCAGCCCGTGATATTCATTACTTCTTATCCTAGGATCCCCGTT DNA 2: AACGGGGATCCTAGGATAAGAAGTAATGAATATCACGGGCTGACTCTAGAAGCTTGGCTT |  |  |  | 2900 ± 600 nM |  |  |
